This is an account of results in patent US20210047428A1.

Where only a bound is given, the exact number is not on record here.

What is called Kd is the free concentration of one partner at which half of the binding sites on the other are occupied at equilibrium, for simple one-to-one binding.

The target in test [1] is HEL R21Q G71R R73K L75A N77G D101R (self with foreign 71, 73, 75, 77) (hen) (UniProt P00698). The experiment in a line: BLI; against I29F Fab on DEL.
Test [2] deals with HEL R21Q R73E L75A D101R (self with foreign 75) (hen) (UniProt P00698). Nature of the test: BLI; against I29F Fab on DEL. On the technique in general: In BLI a coated tip is dipped into the sample, and binding shifts an interference pattern.
Test [3] addresses HEL R21Q R73K D101R (self with foreign 73) (hen) (UniProt P00698). The experiment in a line: BLI; against I29F Fab on DEL.
Test [4] concerns the target HEL R21Q R73K L75A D101R (self with foreign 73, 75) (hen) (UniProt P00698). Nature of the test: BLI; against I29F Fab on DEL.
For test [5], the target named is HEL^3X (hen egg lysozyme R21Q, R73E, D101R), soluble recombinant (hen) (UniProt P00698). The experiment in a line: BLI; against I29F Fab on DEL.
The target in test [6] is duck egg lysozyme (DEL), soluble recombinant (duck) (UniProt P00705). Nature of the test: BLI; against I29F Fab on DEL.
The target is the same in test [7]. Nature of the test: BLI; against WT HyHEL10 on DEL.
The target in test [8] is HEL R21Q G71R R73K L75A N77G D101R (self with foreign 71, 73, 75, 77) (hen) (UniProt P00698). Nature of the test: BLI, Fab on streptavidin sensor.
Test [9] concerns the target HEL R21Q R73E L75A D101R (self with foreign 75) (hen) (UniProt P00698). Nature of the test: BLI, Fab on streptavidin sensor.
For test [10], the target named is HEL R21Q R73K D101R (self with foreign 73) (hen) (UniProt P00698). The experiment in a line: BLI, Fab on streptavidin sensor.
Test [11] has as its target HEL R21Q R73K L75A D101R (self with foreign 73, 75) (hen) (UniProt P00698). Nature of the test: BLI, Fab on streptavidin sensor.
The target of test [12] is HEL^3X (hen egg lysozyme R21Q, R73E, D101R), soluble recombinant (hen) (UniProt P00698). The experiment in a line: BLI, Fab on streptavidin sensor.
The target in test [13] is duck egg lysozyme (DEL), soluble recombinant (duck) (UniProt P00705). Nature of the test: BLI, Fab on streptavidin sensor.
In test [14] the target is HEL^3X (hen egg lysozyme R21Q, R73E, D101R), soluble recombinant (hen) (UniProt P00698). The experiment in a line: BLI; against WT HyHEL10 on HEL^3X.
Test [15] has the same target. Nature of the test: BLI (BLItz), biotinylated Fab on streptavidin biosensor, soluble monomeric HEL3X, global fit.
Test [16] has as its target duck egg lysozyme (DEL), soluble recombinant (duck) (UniProt P00705). Nature of the test: BLI (BLItz), biotinylated Fab on streptavidin biosensor, soluble monomeric DEL 0.03-0.25 µM, global fit.
Test [17] shares this target. Nature of the test: BLI (BLItz), biotinylated Fab on streptavidin biosensor, soluble monomeric DEL, global fit.
For test [18] the target is unchanged. Nature of the test: BLI; affinity for DEL against affinity for HEL^3X.
The target in test [19] is HEL^3X (hen egg lysozyme R21Q, R73E, D101R), soluble recombinant (hen) (UniProt P00698). The experiment in a line: BLI, highest concentration of HEL^3X tested.
The target is the same in test [20]. Nature of the test: BLI.
Test [21] deals with duck egg lysozyme (DEL), soluble recombinant (duck) (UniProt P00705). Nature of the test: BLI.
For test [22] the target is unchanged. Nature of the test: BLI (BLItz), biotinylated Fab on streptavidin biosensor, soluble monomeric DEL 0.025-0.25 µM, global fit.
In test [23] the target is HEL^R21Q,R73E,C76S,C94S (HEL^2X-flex) (hen) (UniProt P00698). Nature of the test: BLI (Example 10).
The target in test [24] is duck egg lysozyme (DEL), soluble recombinant (duck) (UniProt P00705). Nature of the test: BLI (BLItz), biotinylated Fab on streptavidin biosensor, soluble monomeric DEL 0.03-0.5 µM, global fit.

Consider HyHEL10 Fab I29F, for which the Fold change in [1] is -2 fold; in [2], -54.5 fold; in test [3], -22.3 fold; in [4], -1.8 fold; in test [5], -56.1 fold; in test [6], 0 fold. Moreover, the Fold change was 2.6 fold in [7] and -10.5 fold in [14]. For the same substance, the ΔΔG apparent was -0.6 kcal/mol in test [7] and 1.4 kcal/mol in test [14]. For the same substance, the Kd in [8] amounted to 32 nM; in test [9], 856 nM; in test [10], 350 nM; in [11] it was 28 nM; in test [12], 880 nM; in test [13] it was 15 nM. Also, the figures for the equilibrium dissociation constant (Kd) in test [15] and in [16] were 880 nM and 16 nM, respectively. The Ka turned out to be 1.1e+06 M⁻¹ in test [15] and 6.4e+07 M⁻¹ in test [16].

Take HyHEL10 Fab I29F/S52T: the ΔΔG apparent in test [7] was -1.1 kcal/mol. In test [13], the Kd is 6 nM. In addition, in [17], the Ka turned out to be 1.7e+08 M⁻¹ and the Kd turned out to be 5.8 nM.

With HyHEL10 Fab I29F/S52T/Y53F, the Fold change in test [7] is 245 fold; in [14], -9.6 fold. The ΔΔG apparent was -3.3 kcal/mol in test [7] and 1.3 kcal/mol in [14]. Moreover, the Kd in [12] stood at 807 nM; in test [13], 0.164 nM; in test [17], 0.16 nM. Also, the fold differential binding to foreign (DEL) over self (HEL^3X) in test [18] came to 5000 fold. Also, the Ka in [17] came to 6.1e+09 M⁻¹.

Regarding HyHEL10 Fab I29F/S52T/Y58F, in test [7], the Fold change is 23.8 fold and the ΔΔG apparent was -1.9 kcal/mol. Further, the dissociation constant Kd in test [13] was 2 nM.

For HyHEL10 Fab I29F/Y53F, the ΔΔG apparent in test [7] is -2.2 kcal/mol. In addition, the Kd in test [13] and in test [17] was 1 nM each time. In addition, the Ka in test [17] came to 9.7e+08 M⁻¹.

Turning to HyHEL10 Fab S52R, in [19], the fold lower affinity against unmutated HyHEL10 is more than 100 fold.

As to HyHEL10 Fab S52R/Y53F, in [19], the fold lower affinity against unmutated HyHEL10 is more than 100 fold.

Take HyHEL10 Fab S52T: in test [7], the Fold change worked out at 1.2 fold and the ΔΔG apparent is -0.1 kcal/mol. Further, in [13], the Kd worked out at 33 nM. Moreover, in test [17], the Ka was 3e+07 M⁻¹ and the Kd was 34 nM.

Turning to HyHEL10 Fab S52T/Y53F, the Fold change in test [7] is 1.1 fold; in test [14] it was -1.8 fold. In addition, the results for the ΔΔG apparent in test [7] and in test [14] were -1.4 kcal/mol and 0.3 kcal/mol, respectively. Further, the results for the Kd in test [12], in [13] and in [17] were 152 nM, 3.6 nM and 3.6 nM, respectively. In addition, the Ka in test [17] stood at 2.8e+08 M⁻¹.

As to HyHEL10 Fab S52T/Y53F/Y58F, the fold increase of affinity against unmutated HyHEL10 in test [20] was 4 fold. Further, the fold lower affinity than the I29F-S52T-Y53F trio in test [21] turned out to be 3 fold. Also, the Fold change in [7] is 80 fold; in test [14], 3.5 fold. Also, the ΔΔG apparent in [7] is -2.6 kcal/mol; in [14] it was -0.7 kcal/mol. For the same substance, the Kd in test [12] worked out at 24 nM; in test [13], 0.5 nM; in test [17], 0.5 nM. For the same substance, in [17], the Ka turned out to be 1.99e+09 M⁻¹.

As for HyHEL10 Fab S52T/Y58F, the Kd in test [13] came to 3 nM. For the same substance, in [17], the Ka amounted to 3.8e+08 M⁻¹ and the Kd was 2.6 nM.

HyHEL10 Fab Y53F: in [7], the Fold change came to 4.8 fold and the ΔΔG apparent was -0.9 kcal/mol. For the same substance, the Kd in [13] was determined as 8 nM. In test [22], the Ka came to 1.2e+08 M⁻¹ and the Kd is 8.4 nM.

HyHEL10 Fab Y58F: in test [7], the ΔΔG apparent was -0.8 kcal/mol. Moreover, the Kd in test [13] was 11 nM. In test [17], the Ka was found to be 9.4e+07 M⁻¹ and the Kd is 11 nM.

For the substance HyHEL10 Fab, wild-type, the Ka in [23] is 1.6e+07 M⁻¹; in test [15], 1.2e+07 M⁻¹; in [24] it was 2.5e+07 M⁻¹. Also, the Fold change in test [7] and in [14] was 0 fold throughout. Further, the ΔΔG apparent in [7] and in test [14] was 0 kcal/mol throughout. Moreover, the Kd was determined as 84 nM in test [12], 40 nM in [13], 84 nM in test [15] and 40 nM in [24].
